Source: patent US20210316003A1 (Immunomedics, Inc., priority 2020, published 2021)

Tests used:
[1] = test system: patients with metastatic urothelial cancer (mUC); conditions: 10 mg/kg, cited from earlier work
patients with mSCLC = conditions: in vivo
Procedure: Doses of 8 or 10 mg/kg were given on days 1 and 8 of a 21-day cycle, with contingencies to delay (maximum of 2 weeks). Toxicities were managed by supportive hematopoietic growth-factor therapy for blood cell reduction, dose delays and/or modification as specified in the protocol (e.g., 25% of prior dose), or by standard medical practice. Treatment was continued until disease progression, initiation of alternative anticancer therapy, unacceptable toxicity, or withdrawal of consent.
Safety evaluations were conducted during scheduled visits or more frequently if warranted.
Statistical Analyses—The data included in the analyses were derived from patients enrolled from November 2013 to June 2016, with follow-up through Jan. […] The frequency and severity of adverse events (AEs) were defined by MedDRA Preferred Term and System Organ Class (SOC) version 10, with severity assessed by NCI-CTCAE v4.03.

sacituzumab govitecan
Complete responses (CR), number ([1]; 35 mUC patients): 2
Confirmed partial responses (PR), number ([1]; 35 mUC patients): 6
Objective response rate (ORR) ([1]; 35 mUC patients): 29%
PR pending confirmation, number ([1]; 35 mUC patients): 2
Treated patients with a reduction in tumor size ([1]; 35 mUC patients): Seventy-four
ORR in patients with liver metastases ([1]; mUC): 25%
Anemia, grade 3 or 4 (patients with mSCLC): 8%
Diarrhea, grade 3 or 4 (patients with mSCLC): 9%
Fatigue, grade 3 or 4 (patients with mSCLC): 13%
Hyponatremia, grade 3 or 4 (patients with mSCLC): 8%
Increased alkaline phosphatase, grade 3 or 4 (patients with mSCLC): 8%
Infusion-related reactions (patients with mSCLC): No infusion-related reactions were reported
Neutropenia, grade 3 or 4 (patients with mSCLC): 34%
Patients with dose reduction (patients with mSCLC; 8 mg/kg): 13%
